This is an account of results in paper PMC3341524.

This assay addresses murine p35-HA alanine/serine-scan mutant A13 (mouse) (UniProt P43431). The experiment in a line: co-IP.

B1: murine Ebi3, triple-FLAG tagged (natural protein)
chain: YTETALVALSQPRVQCHASRYPVAVDCSWTPLQAPNSTRSTSFIATYRLGVATQQQSQPCLQRSPQASRCTIPDVHLFSTVPYMLNVTAVHPGGASSSLLAFVAERIIKPDPPEGVRLRTAGQRLQVLWHPPASWPFPDIFSLKYRLRYRRRGASHFRQVGPIEATTFTLRNSKPHAKYCIQVSAQDLTDYGKPSDWSLPGQVESAPHKP
For the molecule B1, the decrease in IL-35 dimer formation against wild type is 30%.
